Measured values taken from patent US20250129146A1, “COMBINED CANCER THERAPY WITH AN EPITHELIAL CELL ADHESION MOLECULE (EPCAM) INHIBITOR AND A WNT INHIBITOR” (ACADEMIA SINICA, priority 2021, published 2025).
“Also recorded” adds a separate entry of the source. Values belong to the molecule of their own block, whether it stands above or below them.

What was measured:
TCF = TCF activity (TOP-Flash TCF luciferase reporter); type: cell-based, human
Method: Cells were plated at 5×10^3 cells per well and grown overnight in 12-well plates. Then, cells were transiently transfected with TOP-Flash TCF reporter plasmid (Millipore) using poly-jet transfection reagent (SignaGen). At 48 h post transfection, cells were treated with 20 µg/mL Anti-EpCAM EpAb2-6 (Produced in house) or MT201 (Produced in house) for 6 h or 400 ng/mL LGK974 (MedChemExpress) for 9 h or the combination, as indicated. In addition, cells were treated with EpEX (Produced in house by Expi293 Expression System) or recombinant Wnt3A (R & D systems) or the combination for 8 h. Finally, cells were lysed, and the luciferase assay was performed.
(§1) The cells were seeded in 24-well plates (1×10^4 cells/well) and incubated at 37° C. for 24 h. The culture media were refreshed, and the cells were transfected with respective reporter plasmids (TCF reporter or Wnt receptor promoter reporter) by PolyJET (SignaGen). The transfected efficiency was normalized by co-transfected with pRL-TK (20 ng) as an internal control. Additional treatments were conducted as indicated. Firefly luciferase and Renilla luminescence were measured 48 h post-transfection using the Dual-Glo Luciferase Assay System (Promega), according to the manufacturer's recommendations.

[1] = system: Wnt receptors (FZD6/7, LRP5/6); experiment: Wnt receptor protein and mRNA expression (western blot, qPCR); type: cell-based, human; conditions: HT29 and HCT116 cells; overnight DAPT treatment
Method: (§2) For western blotting, cells were extracted using radioimmunoprecipitation assay (RIPA) buffer [(0.01 M sodium phosphate, pH 7.2), 150 mM NaCl, 2 mM EDTA, 50 mM NaF, 1% Nonidet P-40, 1% sodium deoxycholate, and 0.1% SDS)] containing phosphatase inhibitor (Roche) and protease inhibitor (Roche) cocktail. Equal amounts of protein were separated by SDS-PAGE and then transferred to PVDF membranes. The membranes were blocked with 3% BSA in TBST (Blocking solution) and incubated with necessary primary antibodies in the blocking solution overnight at 4° C. Membranes were then incubated with HRP-conjugated secondary antibodies in the blocking solution for 1 h at room temperature, and protein expression were detected. Antibodies used: anti-α-tubulin (Sigma), anti-EpCAM (abeam), anti-Active β-Catenin (Millipore), anti-total β-Catenin (abeam), anti-Frizzled 6 (CST), anti-Frizzled 7 (Santa Cruz Biotech), anti-LRP5 (abcam), anti-Phospho-LRP5 (abcam), anti-Phospho-LRP6 (CST), anti-LRP6 (CST) and anti-EpEX antibody EpAb3-5 (Produced in house), anti-ADAM17 (abcam), anti-phopho-ADAM17 (abcam), anti-Presenilin2 (abcam), anti-phospho-Presenilin2 (S327) (abcam), anti-phospho-Presenilin2 (S330) (abcam) and anti-Axin2 (CST).
Total RNA was extracted using TRI reagent and 5 μg of the total RNA was further reverse-transcribed using oligo (dT) primer with reverse transcriptase. Quantitative real time RT-PCR (qPCR) was performed on cDNA using the Light Cycler 480 SYBR Green-I Master kit and the LightCycler480 System. The gene expression levels of each sample were normalized to the expression levels of glyceraldehyde 3-phosphate dehydrogenase (GAPDH) or β-actin.

active β-Catenin = experiment: Nuclear translocation of β-Catenin (immunofluorescence staining; cell fractionation with western blot); type: cell-based, human
Method: Cells (1×10^6) were seeded overnight and further allowed to grow in serum free conditions. Then cells were further treated with 20 μg/mL mEpAb2-6 or hEpAb2-6 or MT201 for 6 h or with 400 ng/mL LGK974 (MedChemExpress) for 9 h or combination as indicated. Samples were fractioned into cytosol and nuclear extracts using nuclear/cytosol fractionation kit (Biovision) according to the manufacturer's protocol. The fractions were then subjected to western blot analysis.
as §2
Glass slides were used in 24-well plates and coated with 0.1% gelatin. Further, 3×10^4 cells were seeded in serum free medium overnight. Cells were treated with 20 μg/mL EpAb2-6 for 6 h, or 400 ng/mL LGK974 (MedChemExpress) for 9 h or the combination. Cells were washed using ice-cold PBS and fixed with 4% paraformaldehyde for 15 min at RT and washed with ice-cold PBS. Further, cells were permeabilized using 0.1% triton-X in PBS for 20 min and subsequently washed with PBS. Cells were blocked with 3% BSA in PBS for 1 h at RT. Next, cells were treated with primary antibody anti-Active β-Catenin (Millipore) overnight. Then, cells were washed and treated with secondary antibody in 3% BSA containing PBS along with DAPI for 1 h at RT. Samples were then washed in PBS five times and mounted for microscopy. Nuclear β-Catenin intensities were calculated using IMARIS (Oxford Instruments) software.

[2] = system: Wnt receptor promoters (LRP5, LRP6, FZD6, FZD7); experiment: Wnt receptor promoter luciferase reporter assay; type: cell-based, human; conditions: cells transfected with EpCAM plasmid; overnight DAPT treatment
Method: as §1
The putative promoter regions of LRP5 (−1187 to +200), LRP6 (−1543 to +55), FZD6 (−1385 to +205) and FZD7 (−1285 to +116) were cloned from HeLa genomic DNA and fused to pGL4.18 plasmid (Promega, USA). The genomic DNA was extracted using a Genomic DNA Isolation Kit (NovelGene, TW) according to the manufacturer's recommendations.

[3] = system: colon cancer cells (SW620, HCT116); conditions: general description of other anti-EpCAM antibodies; cited from earlier work
EpCAM = molecular target: T1, EpCAM (Homo sapiens, UniProt P16422); conditions: general description of other anti-EpCAM antibodies; cited from earlier work
T1 construct: HEK293T cells were transfected with full length or EGF like-domain deletion mutant EpCAM-V5; V5; expressed in transfected cells; host or cells: HEK293T
T1 sequence (P16422 24-314): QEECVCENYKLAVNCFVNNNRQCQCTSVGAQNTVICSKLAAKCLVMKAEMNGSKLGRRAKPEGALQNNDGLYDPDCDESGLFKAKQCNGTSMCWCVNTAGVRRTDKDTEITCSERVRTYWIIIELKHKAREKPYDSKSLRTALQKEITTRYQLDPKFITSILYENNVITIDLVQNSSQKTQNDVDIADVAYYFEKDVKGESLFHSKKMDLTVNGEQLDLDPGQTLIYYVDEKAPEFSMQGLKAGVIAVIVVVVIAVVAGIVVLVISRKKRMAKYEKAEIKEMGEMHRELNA

[4] = system: HCT116, HT29 and SW620 cells; experiment: Tumorsphere assay; type: cell-based, human; conditions: summary statement; CRC cells; tumorsphere and colony formation
Method: Cells were seeded in ultra-low adherent 6-well plates (5×10^4 cells per well) or 24-well plates (1×10^3 cells per well) and maintained in DMEM/F-12 supplemented with B27. Further, cells were treated with 20 μg/mL mEpAb2-6, hEpAb2-6 or MT201 (Produced in house), or 400 ng/mL LGK974 (MedChemExpress) or the combination, by direct addition to the culture medium. The entire culture medium, including the treatment component, was changed in every other day. Cells were cultured for 10 days, and on 10th day, spheres were counted and photographed under the microscope.

[5] = system: colon cancer cells (SW620, HCT116); experiment: Annexin-V/PI apoptosis assay; type: cell-based, human; conditions: HCT116 cells; 20 μg/mL hEpAb2-6, mEpAb2-6 or MT201 for 24 hrs
Method: Cells were seeded in 24-well plate ([…] cells per well) overnight and then treated with 20 μg/mL mEpAb2-6, hEpAb2-6 or MT201, or […] LGK974 (MedChemExpress) or the combination for 24 hrs. Cell pellets were collected, and an apoptosis assay was performed using an Annexin-V/PI apoptosis kit (BD Biosciences). Results were read by flow cytometry analysis percentage apoptotic cells was calculated.

[6] = wild-type HCT116 cells, DAPT with or without EpEX

TCF activity (TCF; [6]): marginally decreased TCF activity
Wnt receptor promoter activity [2]: almost completely blocked the effect
Molecule: C[C@H](NC(=O)Cc1cc(F)cc(F)c1)C(=O)N[C@H](C(=O)OC(C)(C)C)c1ccccc1 [DAPT, reference compound]
expression of Wnt receptors [1]: reduced expression of Wnt receptors
nuclear translocation of β-Catenin (active β-Catenin; [6]): decreased nuclear translocation of β-Catenin

B1: edrecolomab: other anti-EpCAM antibody targeting only the EGF I domain (antibody, chains of the INN, looked up, V domains shown)
VH: QVQLQQSGAELVRPGTSVKVSCKASGYAFTNYLIEWVKQRPGQGLEWIGVINPGSGGTNYNEKFKGKATLTADKSSSTAYMQLSSLTSDDSAVYFCARDGPWFAYWGQGTLVTVSA
VL: NIVMTQSPKSMSMSVGERVTLTCKASENVVTYVSWYQQKPEQSPKLLIYGASNRYTGVPDRFTGSGSATDFTLTISSVQAEDLADYHCGQGYSYPYTFGGGTKLEIK
inducing apoptosis of cancer cells [3]: failing
EpCAM domains bound (EpCAM): target only the well-described EGF I domain of EpCAM; also recorded: binding to domain I only

B2: hEpAb2-6: humanized form of EpAb2-6 (antibody, V domains shown)
VH: VKLQESGPELKKPGETVKISCKASGYTFTDYSMHWVKQAPGKGLKWMGWINTETGEPTYADDFKGRFAFSLETSASTAYLQINNLKNEDTATYFCARTAVYWGQGTTVTVSS
VL: DIQMTQSPSSLSASLGERVSLTCRASQEISVSLSWLQQEPDGTIKRLIYATSTLDSGVPKRFSGSRSGSDYSLTISSLESEDFVDYYCLQYASYPWTFGGGTKLEIKRADAAPTVS
cancer stemness properties [4]: limits cancer stemness
TCF activity (TCF; HT29 cells, 20 µg/mL antibody for 6 h): retained β-Catenin inhibitory activity thus related TCF activity
nuclear translocation of β-Catenin (active β-Catenin; HT29 cells, 20 μg/mL hEpAb2-6 or MT201 for 6 h): retained β-Catenin inhibitory activity; also recorded: attenuates nuclear translocation of β-Catenin
induction of apoptosis [5]: induces apoptosis
